Reference: the supplement of paper PMC10567573
± gives the standard deviation.

Experiment: protein stability index of a GFP-peptide fusion (GPS, HEK-293T) (PSI 1-6); higher = more stable
[1] = treatment: DMSO, c terminus: a fixed tail appended
[2] = treatment: MLN4924 1 uM, 8 h, c terminus: a fixed tail appended
[3] = treatment: DMSO, c terminus: native
[4] = treatment: MLN4924 1 uM, 8 h, c terminus: native
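Note: 24-mer peptide tiles fused after GFP, lentivirally expressed, FACS-sorted into six equal bins by GFP/DsRed ratio, decoded by Illumina sequencing, PSI is the read-weighted mean bin number.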

Sequence	protein stability index [1]	protein stability index [2]	protein stability index [3]	protein stability index [4]
EVLEWYTAKDFIVGKSLTILGRTF [EFHC1]	3.13 ± 0.62	2.62 ± 0.61	–	–
EWVLSTGQDKQFAWHCSESGQRLG [WDFY2]	3.21 ± 0.23	3.05 ± 0.2	–	–
EYDVYSTFQSHEPEFDYLKSLEIE [PPP2R2C]	4.33 ± 0.17	4.3 ± 0.078	–	–
FAASLLTVFAWLLQYARGLWLARA [C2CD2L]	2.8 ± 0.49	2.54 ± 0.4	–	–
FAGSMFGSVALGPVCPTVCPPGGI [KRT71]	2.73 ± 0.61	2.36 ± 0.57	–	–
FAKAGDTLSGTCLLIANKRQSYDI [CARM1]	2.48 ± 0.38	2.36 ± 0.41	–	–
FAPLLDEQYDLATKRVRQLLDLDP [GOLPH3]	2.64 ± 0.48	2.94 ± 0.33	–	–
FAYYKLNDVRQAARSAASYMLFDP [P3H4]	2.12 ± 0.22	2.14 ± 0.16	–	–
FCIPEHISPKARCLIRSLLRREPS [TRIB1]	2.34 ± 0.47	2.03 ± 0.32	–	–
FDPKTKRILTLQKANSWFNCRKN [MMP1]	–	–	2.84 ± 0.41	2.78 ± 0.25
FGATTNYGKDIVKACSLLDVAVHM [ZBED1]	2.17 ± 0.37	2.1 ± 0.34	–	–
FGWETKIKAWMDRYEEANNNQYSE [KMT2E]	3.1 ± 0.18	3.58 ± 0.13	–	–
FIICIVIAILLYKSKPDRKRAESD [PTPRD]	2.96 ± 0.72	2.97 ± 0.043	–	–
FKKVLDLNPGFQDATLSLKQTILD [TTC32]	2.7 ± 0.24	2.86 ± 0.2	–	–
FKLKESCVRRRYSDFEWLKNELER [SNX12]	2.33 ± 0.21	2.59 ± 0.26	–	–
FKLTNKNSDRMTHCGVLEFVADEG [UFD1]	3.32 ± 0.18	3.27 ± 0.31	–	–
FLADEEFDVVVCDQVSACIPVFRL [ALG2]	2.3 ± 0.43	2.34 ± 0.47	–	–
FLLIVTLCVILYKKVHKGTVPKND [GLT8D2]	2.59 ± 0.8	2.3 ± 0.59	–	–
FLPGYVGGIQEGAVTPAGVVNKYQ [DHCR7]	3.42 ± 0.21	3.45 ± 0.24	–	–
FLPLNSAQTLHHKSCYNGRFQLLY [DNAAF3]	2.54 ± 0.32	2.38 ± 0.36	–	–
FLQKSSVGITVLNLCALSVDRYRA [EDNRA]	2.69 ± 0.54	2.75 ± 0.54	–	–
FLSGMEAAPRTLAAHPPLPLLPPA [TBX6]	2.95 ± 0.41	3.15 ± 0.26	–	–
FLVSAVAHEYIFCFVLGFFYPVML [SOAT2]	3.25 ± 0.35	3.3 ± 0.44	–	–

Sequence	protein stability index [1]	protein stability index [2]	protein stability index [3]	protein stability index [4]
FMLLLIFFAFLHCWLNAFAEMLRF [SOAT2]	3.07 ± 0.18	2.88 ± 0.57	–	–
FMLLTQARLFDEPQLASLCLDTID [BTBD1]	2.29 ± 0.52	2.34 ± 0.48	–	–
FMVVDLLLGGDLRYHLQQNVHFKE [STK32A]	2.8 ± 0.66	3.09 ± 0.78	–	–
FNPEVAKYLKVPQDPLKFYKKIYF [IQUB]	2.12 ± 0.36	2.24 ± 0.043	–	–
FPYEYSYGLQGGMAFLDKRLQVKE [ATL3]	2.53 ± 0.1	2.69 ± 0.12	–	–
FQEAAGPREALSRLQELCHGWLRP [ZNF263]	2.66 ± 0.4	2.67 ± 0.35	–	–
FQFTDWPEQGVPKSGEGFIDFIGQ [PTPRD]	2.68 ± 0.22	2.84 ± 0.31	–	–
FQILLLSDPSTIEASNFQMDRKTR [PNLIPRP1]	2.03 ± 0.43	2.42 ± 0.28	–	–
FRADQRSGPRQLLTLYNPTGTALR [MOSPD3]	3.2 ± 0.22	3.39 ± 0.35	–	–
FRDATSAPLRKLSVDLIKTYKHIN [DYRK1B]	3.36 ± 0.17	3.39 ± 0.27	–	–
FRKVKQMHLNFMDEKDRIITAFYN [DNAJC4]	2.26 ± 0.2	2.41 ± 0.28	–	–
FRLETLAGLRSRRLKQPKAFCLRD [MIR22HG]	2.52 ± 0.28	2.46 ± 0.29	–	–
FRYLQGMLEAGEGGDWPGPGGPRN [PDLIM4]	2.76 ± 0.12	3.64 ± 0.49	–	–
FSDSSMDHFQKFLPTVGGQLGTAG [MYOZ1]	2.78 ± 0.31	3.23 ± 0.34	–	–
FSTWNLDHIIEKKRTIIPTLVEAI [DFFB]	2.44 ± 0.45	2.55 ± 0.34	–	–
FTNDKIINLPVEEFNELLSKYQLS [NFE2L1]	2.85 ± 0.28	2.76 ± 0.16	–	–
FTTNKCKGFGFVTMTNYDEAAMAI [ELAVL3]	2.49 ± 0.65	2.51 ± 0.14	–	–
GAAESPYSHLGGIDYKTTTILLDG [RAB40A]	3.61 ± 0.4	3.57 ± 0.17	–	–
GALMEVMQKRSKAIHSSDEDEDED [WASL]	5.49 ± 0.19	5.41 ± 0.17	–	–
GANVKPRNSTPPSLARNPAPGVLT [ZC2HC1A]	4.24 ± 0.23	4.16 ± 0.5	–	–
GASTFKEEPQTVPEARSRDATPPV [JUNB]	5.34 ± 0.19	5.32 ± 0.15	–	–
GAVYADSGNFERCIRLWKYALDMQ [FEM1A]	2.38 ± 0.14	2.24 ± 0.38	–	–
GDVPPSMSGSCAVCVDRVLYLFGG [KLHDC2]	2.74 ± 0.79	2.47 ± 0.55	–	–

Sequence	protein stability index [1]	protein stability index [2]	protein stability index [3]	protein stability index [4]
GEEQSQYMHVGSCQHLSSSAEELR [KCNA3]	4.83 ± 0.25	4.52 ± 0.2	–	–
GEGEPGQGEGPEAGDAEVCPTPAR [NOP53]	5.71 ± 0.2	5.67 ± 0.13	–	–
GEKPYKCTHCSKSFRQRAGLIMHQ [ZNF449]	3.59 ± 0.46	3.75 ± 0.27	–	–
GFLQALSLAVDKQFEERKKLAAYI [TRIP13]	3.35 ± 0.22	2.54 ± 0.39	–	–
GGFGGGFAGGFVDFGACDGGLLTG [KRT13]	2.71 ± 0.084	3.12 ± 0.25	–	–
GGGDISVKELGTVMRMLGQTPTKE [TNNC2]	4.04 ± 0.05	3.64 ± 0.83	–	–
GGGGSRSISASSARFVSSGSGGGY [KRT15]	4.23 ± 0.29	4.13 ± 0.3	–	–
GGGTPSLASPHTVAAVLEAVAQTA [RSAD1]	3.46 ± 0.52	3.54 ± 0.3	–	–
GGPPAGPGGVYAGPEPPPVYTNLS [JUNB]	4.15 ± 0.12	4.56 ± 0.099	–	–
GGSSGQVTSNGSIGRDPPAETQPQ [CLPTM1]	5.47 ± 0.24	5.42 ± 0.21	–	–
GGTDPHGYHQVPGSAAPGSPLAAD [FOXJ1]	5.11 ± 0.099	5.234 ± 0.051	–	–
GGTEEKSSLLMSCLACDTWAVIL [RPAIN]	–	–	2.7 ± 0.86	2.4 ± 0.84
GHGAEQAAAFPTEDSRTSKESMSE [EHMT1]	5.69 ± 0.2	5.19 ± 0.62	–	–
GHLEVVRYLVGEHQADLEVANRHG [FEM1A]	3.4 ± 0.48	3.24 ± 0.41	–	–
GHSSSRDDYPSRGYSDRDGYGRDR [RBMX]	4.87 ± 0.18	4.88 ± 0.16	–	–
GHVEVARLLLDSGAQVNMPADSFE [ANKRD17]	3.88 ± 0.091	3.83 ± 0.24	–	–
GIAHKIEAGNEFKNIFGTPEFVAP [DAPK3]	3.44 ± 0.61	3.64 ± 0.39	–	–
GILEHVDSASPVEDTSNDESSILG [M1AP]	5.56 ± 0.26	5.48 ± 0.4	–	–
GKGRTASPINSPARGTPSPKRMPS [FSD1]	5.13 ± 0.25	5.05 ± 0.32	–	–
GKKDVSHSSPVDLKIPQVRGMDLS [LCOR]	4.32 ± 0.31	4.24 ± 0.36	–	–
GKNPDVDTSFLPDRDREEEENRLR [FAM50A]	5.26 ± 0.11	5.49 ± 0.38	–	–
GKTYCKRDYVRLFGIKCAKCQVGF [ISL2]	2.03 ± 0.19	2.17 ± 0.23	–	–
GLLETEPLQGTDEDAVASADFSSM [TPD52L1]	5.34 ± 0.3	5.29 ± 0.37	–	–

Sequence	protein stability index [1]	protein stability index [2]	protein stability index [3]	protein stability index [4]
GLNHSLSYDVALHRTRLQDLRVLV [SCARA5]	2.2 ± 0.34	2.13 ± 0.1	–	–
GLQEEPVEGFRVTLVDEGDLYNWE [CDC34]	4.26 ± 0.14	4.15 ± 0.34	–	–
GLQVEGLRRRLEELQQELSLKDQE [LRRC45]	4.47 ± 0.17	4.73 ± 0.16	–	–
GLSAPHSRQIPAPQGAVLVQREKD [KISS1]	5.34 ± 0.19	5.19 ± 0.087	–	–
GLSSSSARFLSRSIPSLQSEYVHY [CDC14A]	2.97 ± 0.53	3.02 ± 0.21	–	–
GLVYRLNRFRVEISFHFEVTNHNI [TRIM43]	3.33 ± 0.66	3.35 ± 0.8	–	–
GNPFLDVPQALSATTYKHGVLTRK [PSD2]	4.08 ± 0.3	4.18 ± 0.4	–	–
GQCGENLAWASYDQTGKEVADRWY [GLIPR2]	2.68 ± 0.31	3.13 ± 0.26	–	–
GRASRFLQSISWDPEDFEDAWKRP [TLE6]	3.15 ± 0.21	3.13 ± 0.31	–	–
GRLSMAAADIVNFLTVGSVLQMWH [ZBTB22]	3.33 ± 0.17	3.4 ± 0.48	–	–
GRPSMVWLSANPCPHCGDRTFYDP [PRAME]	2.24 ± 0.26	2.33 ± 0.41	–	–
GRWVNENCRLQSPYFSPSASFHHK [CBY2]	2.89 ± 0.19	2.86 ± 0.31	–	–
GSRISVSRSTSFRGGMGSGGLATG [KRT18]	3.65 ± 0.19	4.04 ± 0.69	–	–
GSVYFWATPRQVPSLQHLCRMSIR [WSB1]	3.05 ± 0.2	2.7 ± 0.043	–	–
GVIQSVIGWKTVRMYPFQIHSIAL [CDS2]	2.81 ± 0.34	2.94 ± 0.35	–	–
GVMSAYAMCVRYDGVEVDDSYCDA [ADAMTSL2]	3.05 ± 0.15	2.91 ± 0.23	–	–
GYPPFCSETPQETYRKVMNWKETL [STK38L]	2.88 ± 0.29	3.05 ± 0.37	–	–
GYTFGQDISETFNHANGLTLVSRA [PPP2CA]	3.26 ± 0.3	3.19 ± 0.28	–	–
HASGDASYSAGDSGDAAAQPAFTG [EPB41L3]	5.32 ± 0.21	5.21 ± 0.21	–	–
HAVSTCHFCVDDTKLLSGSYDCTV [WDR88]	2.46 ± 0.26	2.44 ± 0.33	–	–
